Assay results as given in publication PMC6123713, “Adenylate kinase potentiates the capsular polysaccharide by modulating Cps2D in Streptococcus pneumoniae D39” (Experimental & Molecular Medicine, 2018).
Residue numbers refer to the chain shown, from its start.

Legend:
[1] = target: T1, His6-Cps2D 3Y3E (Y215E/Y218E/Y221E) (Streptococcus pneumoniae type 2 (D39), UniProt Q9ZII6 1-226, Y215E | Y218E | Y221E); assay: BLI; Blitz system; His6-Cps2D protein (1 μM) immobilised on Ni-NTA sensors; GST-SpAdK 2.5-50 μM; buffer D (250 mM NaCl, 50 mM Tris-HCl, pH 7.5, 1 mM DTT) with 5 mM Mg-ATP; GST and sensor background subtracted; steady-state analysis; apparent Kd; conditions: both partners purified
T1 construct: tyrosine kinase Cps2D of Streptococcus pneumoniae type 2 (D39), triple phosphomimetic mutant of the C-terminal tyrosine cluster; also called pCPS04; source: recombinant, purified to homogeneity; plasmid pCPS04 (E. coli plasmid pHis-parallel 2); cloning and purification in the Supplementary Information
T1 sequence: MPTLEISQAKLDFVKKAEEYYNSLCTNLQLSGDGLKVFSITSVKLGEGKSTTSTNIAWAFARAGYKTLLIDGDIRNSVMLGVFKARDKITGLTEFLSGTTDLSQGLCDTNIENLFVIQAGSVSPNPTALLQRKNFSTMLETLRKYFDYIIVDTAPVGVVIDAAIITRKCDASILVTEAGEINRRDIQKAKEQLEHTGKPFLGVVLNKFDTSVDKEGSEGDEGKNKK

His6-Cps2D wild-type = target: T2, His6-Cps2D wild-type (Streptococcus pneumoniae type 2 (D39), UniProt Q9ZII6 1-226); assay: as above; conditions: both partners purified
T2 construct: autophosphorylating tyrosine kinase Cps2D of Streptococcus pneumoniae type 2 (D39), approximately 226 amino acids; also called Cps2D WT; pCPS03; source: recombinant, purified to homogeneity; plasmid pCPS03 (E. coli plasmid pHis-parallel 2); cloning and purification in the Supplementary Information
T2 sequence: T1 sequence with E215Y, E218Y, E221Y

B1: GST-SpAdK (Streptococcus pneumoniae adenylate kinase, GST-tagged) (enzyme)
chain: MNLLIMGLPGAGKGTQAAKIVEQFHVAHISTGDMFRAAMANQTEMGVLAKSYIDKGELVPDEVTNGIVKERLSQDDIKETGFLLDGYPRTIEQAHALDKTLAELGIELEGIINIEVNPDSLLERLSGRIIHRVTGETFHKVFNPPVDYKEEDYYQREDDKPETVKRRLDVNIAQGEPIIAHYRAKGLVHDIEGNQDINDVFSDIEKVLTNLK
notes: adenylate kinase of Streptococcus pneumoniae (SpAdK); also called glutathione S-transferase (GST)-SpAdK; pGST-ADK; source: recombinant, purified; plasmid pGST-ADK (E. coli plasmid pGST-parallel 2); cloning and purification in the Supplementary Information
B1 showed a Kd [1] of 40 ± 17 µM and a Kd (His6-Cps2D wild-type) of 31 ± 5 µM.
